Data: patent US20240189443A1, “PD-L1 AND TLR7 DOUBLE-TARGETING NANOBODY COUPLING DRUG AND USE THEREOF IN ANTI-TUMOR” (SHANGHAI INSTITUTE OF MATERIA MEDICA, CHINESE ACADEMY OF …, priority 2021, published 2024)
Several values for one entry are separate records, joined by “and”; a condition that tells them apart may be missing. Equal values may be shown once.

Legend:
[1] = biological target: human PD-L1 (Homo sapiens, UniProt Q9NZQ7); test: CDR affinity maturation of anti-human PD-L1 nanobodies, affinity compared with original antibody; format: binding; details: relative to original antibody h_Nb1 VHH or h_Nb2 VHH
Sequence of human PD-L1 (Q9NZQ7 19-290): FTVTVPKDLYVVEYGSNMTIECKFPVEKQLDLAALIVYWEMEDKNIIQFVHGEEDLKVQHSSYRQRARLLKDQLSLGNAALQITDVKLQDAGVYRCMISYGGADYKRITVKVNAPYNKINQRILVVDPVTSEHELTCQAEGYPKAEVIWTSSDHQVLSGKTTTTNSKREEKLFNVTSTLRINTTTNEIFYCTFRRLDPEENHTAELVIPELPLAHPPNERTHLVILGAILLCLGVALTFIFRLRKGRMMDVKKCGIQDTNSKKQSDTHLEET
Text: Wherein, the original antibody corresponding to the sequence shown in SEQ ID NO.92-106 is h_Nb1 VHH (SEQ ID NO.21); and the original antibody corresponding to the sequence shown in SEQ ID NO.107 -117 is h_Nb2 VHH (SEQ ID NO.25).

[2] = biological target: T1, mPD-L1-Fc fusion protein (mouse; human, UniProt Q9EP73 19-239); test: competition ELISA, coated mPD-L1-Fc, 10 µg/mL mouse PD-1-Fc-Biotin, SA-HRP detection
T1 construct: extracellular domain; also called Mouse PD-L1 (ECD)-pFUSE-hIgG1-Fc; not shown: Fc of human IgG1 from vector pFUSE-hIgG1-Fc
T1 sequence (Q9EP73 19-239 limits assumed): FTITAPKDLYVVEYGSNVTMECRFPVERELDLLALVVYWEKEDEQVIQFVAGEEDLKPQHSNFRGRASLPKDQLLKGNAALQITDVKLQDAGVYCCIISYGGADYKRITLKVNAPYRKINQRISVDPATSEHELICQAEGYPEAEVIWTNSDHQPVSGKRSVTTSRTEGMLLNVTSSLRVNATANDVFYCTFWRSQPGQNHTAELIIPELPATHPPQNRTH
Method: (§1) Coating the plate with mPD-L1-Fc fusion protein at 4° C. overnight, then the plate was sealed with BSA at 37° C. for 2 hours, Nb16 nanobodies of different concentrations and 10 μg/mL mouse PD-1-Fc-Biotin fusion protein were added in each hole., After reacting at room temperature for 1 hour, the plate was washed and antibody SA-HRP was added, and the plate reacted at room temperature for 1 hour. After washing, a color developing solution was added, and an absorption value was read at a wavelength of 450 nm.

[3] = biological target: T1, mPD-L1-Fc fusion protein; test: ELISA, coated mPD-L1-Fc, anti-mouse HRP detection
Method: Coating the plate with mPD-L1-Fc fusion protein at 4° C. overnight, then the plate was sealed with BSA at 37° C. for 2 hours, Nb 16 nanobodies of different concentrations were added in each hole, reacted at room temperature for 1 hour, and the plate were washed and goat anti-mouse horseradish peroxidase labeled antibody was added, and reacting at room temperature for 1 hour. After washing, a color developing solution was added, and an absorption value was read at a wavelength of 450 nm.

[4] = biological target: T2, mouse PD-L1 on cell strain HEK293T/mPD-L1 (mouse, UniProt Q9EP73 19-290); test: flow cytometry on HEK293T/mPD-L1, anti-mouse IgG Fc (PE)
T2 construct: whole, on cells
T2 sequence (Q9EP73 19-290): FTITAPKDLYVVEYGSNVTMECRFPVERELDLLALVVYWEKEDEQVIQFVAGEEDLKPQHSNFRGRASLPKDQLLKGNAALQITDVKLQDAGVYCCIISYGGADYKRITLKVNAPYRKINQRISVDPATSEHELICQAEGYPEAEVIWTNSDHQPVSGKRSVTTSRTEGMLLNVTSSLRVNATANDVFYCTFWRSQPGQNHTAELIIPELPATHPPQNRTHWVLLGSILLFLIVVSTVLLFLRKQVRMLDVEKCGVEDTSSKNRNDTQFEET

[5] = biological target: PD-1/PD-L1 (Mus musculus, UniProt Q9EP73); test: ELISA PD-1/PD-L1 blocking activity assay of nanobody Nb16; format: binding; parameters: A Mouse PD-L1 (ECD)-pFUSE-hIgG1-Fc vector is constructed; made in house; host or cells: HEK293F (PD-L1-Fc)
Sequence of PD-1/PD-L1 (Q9EP73 19-239 limits assumed): as the sequence (Q9EP73 19-239 limits assumed) above
Method: as §1

[6] = tested on: induced high-expression PD-L1 CT26 tumor cell; test: Combined anti-tumor effect of Nb16 and SZU-101, IFN-γ-induced CT26 subcutaneous tumor model; format: in vivo, BALB/c mouse; details: Nb16 10 mg/kg intraperitoneal, SZU-101 3 mg/kg peritumoral
Method: The mouse CT26 tumor cells were recovered and passaged, it was ensured that tumor cells at least have been subjected to 3 generations during tumor-bearing, and mouse IFN-γ with a final concentration of 100 ng/mL was used to induce tumor cells for 24 h before tumor-bearing, so that the cell surface thereof highly expresses PD-L1; the induced high-expression PD-L1 CT26 tumor cell was inoculated subcutaneously into a female BALB/c mouse, wherein the inoculation amount was 1×10^6 cells/one; and randomly grouping mice into four groups (9 per group), i.e., a same-type control group (mFc), a nano-antibody Nb16 group (Nb16), a TLR7 agonist SZU-101 group (SZU-101) and a combined treatment group (NB16/SZU-101), wherein the administration amount of the mFc and the Nb16 was 10 mg/kg, and intraperitoneal administration was performed; and the administration amount of the SZU-101 was 3 mg/kg, and the tumor was administered circumferentially. The administration cycle were Nb16 administered on D1, D5, D9, D12, and D14 and SZU-101 administered on D9-D14 (3A). The body weight of the mouse and the tumor major diameter (L) and the short diameter (W) in the administration cycle were observed and recorded until the anatomical endpoint, and the tumor volume V=(L×W×W)/2 was calculated, a tumor growth curve was drawed, and the tumor inhibition rate was calculated; and the experiment was terminated on the fifteenth day. After performing euthanasia, the animal was dissected, and the subcutaneous tumor was taken out.

[7] = tested on: IFN-γ-induced high-expression PD-L1 CT26; test: IFN-γ-induced high-expression PD-L1 CT26 subcutaneous tumor-bearing model, conjugate vs combined administration; format: in vivo, BALB/c mouse; details: Day 14, Nb16 or Nb16-SZU-101 10 mg/kg, SZU-101 0.5 mg/kg, intraperitoneal, 4 doses
Method: In an IFN-γ-induced high-expression PD-L1 CT26 subcutaneous tumor-bearing BALB/c mouse model, mice were randomly divided into four groups, namely an mFc group, an Nb16 group, an Nb16/SZU-101 combined administration group and an NB16-SZU-101 nanobody conjugate drug group, wherein the administration dosage of the mFc or Nb 16 or Nb16-SZU-101 was 10 mg/kg, the administration mode was intraperitoneal administration, the administration dosage of the SZU-101 was 0.5 mg/kg, and the administration mode was intraperitoneal administration; the drug was administered on Day 2, Day 6, Day 10 and Day 13 for a total of 4 times. Tumor sizes were measured 2-3 times per week, and tumor growth curves were drawn; and anatomical weighing and photographing were performed on mice at Day 14.

B1: h_Nb2_G101Y: affinity-matured h_Nb2 VHH, SEQ ID NO: 112 (protein)
VHH: DVQLQESGGGLVQPGGSLRLSCAASGFTFGDRWMYWLRQAPGKGLEWVSSINPAGRSTYYADSVKGRFTISRDNAKNTLYLQMNSLKSEDTAVYYCTKDPGYYQKGQGTQVTVSS
modifications: h_Nb2_G101Y
Increased relative affinity [1]: 8.4837

B2: nanobody Nb16 (Fc fusion)
chain: QVQLQESGGGSVQAGGSLRLSCAASGYTDRNYWMGWFRQAPGKEREGVAALYTRTGSTYYADSVKGRFTISHDNAKNTLYLQMNSLKPEDTAVYYCAADSNAYGLAPLHHYWGQGTQVTVSS
notes: also called bare anti-Nb16; original PD-L1 nanobody; not shown: Fc of mouse IgG2b from vector pFUSE-mIgG2b-Fc
IC50 [2]: 1.02 µg/mL | EC50 [3]: 0.045 µg/mL

B3: PD-L1 and TLR7 double-targeting nanobody coupling drug Nb16-SZU-101 (Fc fusion)
chain: QVQLQESGGGSVQAGGSLRLSCAASGYTDRNYWMGWFRQAPGKEREGVAALYTRTGSTYYADSVKGRFTISHDNAKNTLYLQMNSLKPEDTAVYYCAADSNAYGLAPLHHYWGQGTQVTVSS
modifications: TLR7 agonist SZU-101 coupled through SZU-101-NHS active ester to amino groups, sites not given; coupling degree 4.5
notes: not shown: Fc of mouse IgG2b from vector pFUSE-mIgG2b-Fc
binding result [4]: binds

B4: Nb16: anti-PD-L1 nanobody, VHH sequence SEQ ID NO: 1, expressed as Fc fusion (protein)
chain: QVQLQESGGGSVQAGGSLRLSCAASGYTDRNYWMGWFRQAPGKEREGVAALYTRTGSTYYADSVKGRFTISHDNAKNTLYLQMNSLKPEDTAVYYCAADSNAYGLAPLHHYWGQGTQVTVSS
modifications: left off: a dimerising Fc or GST
Blocking of PD-1/PD-L1 binding [5]: effectively blocked | Anti-tumor effect [6]: significantly inhibit tumor growth | Tumor inhibitory rate ([6]; day 15): 35% | Endpoint tumor Weight ([6]; individual mice, day 15): 0.806 g and 0.505 g and 0.460 g and 0.450 g and 0.250 g and 0.381 g and 0.664 g and 0.361 g and 0.418 g | Tumor inhibitory rate [7]: 30% | Endpoint tumor Weight ([7]; individual mice): 0.263 g and 0.591 g and 0.342 g and 0.334 g and 0.494 g and 0.442 g
